# B1: SETD8 (parent)
# chain: KKAQGKTQQNRKLTDFYPVRRSSR
# B2: ANKRD40 (parent)
# chain: YQELLRVCCCELGVNPDQVEKIRK
# Variants of: B1
# Experiment: protein stability index of a GFP-peptide fusion (GPS, HEK-293T) (PSI 1-6); higher = more stable
# Details: c terminus: a fixed tail appended
# 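Further: lentivirally expressed fusions sorted by FACS into six bins by GFP to DsRed ratio, PSI derived from sequencing read proportions per bin multiplied by bin number.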
row,Variant,protein stability index
1,KKAQGKTQQNRKLTDFYPVRRYSR,3.06
2,KKAQGKTQQNRKLTDFYPVRRQSR,2.37
3,KKAQGKTQQNRKLTDFYPVRRLSR,2.02
4,KKAQGKTQQNRKLTDFYPVRRHSR,1.38
5,KKAQGKTQQNRKLTDFYPVRRTSR,2.63
6,KKAQGKTQQNRKLTDFYPVRRASR,2.92
7,KKAQGKTQQNRKLTDFYPVRRPSR,2.89
8,KKAQGKTQQNRKLTDFYPVRRGSR,2.42
9,KKAQGKTQQNRKLTDFYPVRRMSR,3.38
10,KKAQGKTQQNRKLTDFYPVRTSSR,2.23
11,KKAQGKTQQNRKLTDFYPVRVSSR,3
12,KKAQGKTQQNRKLTDFYPVRWSSR,2.57
13,KKAQGKTQQNRKLTDFYPVRRSGR,1.83
14,KKAQGKTQQNRKLTDFYPVRRSDR,3.09
15,KKAQGKTQQNRKLTDFYPVRRSAR,3.62
16,KKAQGKTQQNRKLTDFYPVRRSRR,2.16
17,KKAQGKTQQNRKLTDFYPVRRSKR,4.11
18,KKAQGKTQQNRKLTDFYPVRRSER,3.5
19,KKAQGKTQQNRKLTDFYPVRRSTR,2.23

row,Variant,protein stability index
1,KKAQGKTQQNRKLTDFYPVRRSYR,3.04
2,KKAQGKTQQNRKLTDFYPVRRSNR,2.66
3,KKAQGKTQQNRKLTDFYPVRRSPR,2.65
4,KKAQGKTQQNRKLTDFYPVRRSHR,2.7
5,KKAQGKTQQNRKLTDFYPVRRSLR,4.44
6,KKAQGKTQQNRKLTDFYPVRRSFR,3.54
7,KKAQGKTQQNRKLTDFYPVRRSMR,3.18
8,KKAQGKTQQNRKLTDFYPVRRSSC,3.61
9,KKAQGKTQQNRKLTDFYPVRRSSS,3.83
10,KKAQGKTQQNRKLTDFYPVRRSSF,2.57
11,KKAQGKTQQNRKLTDFYPVRRSSH,2.54
12,KKAQGKTQQNRKLTDFYPVRRSSQ,1.06
13,KKAQGKTQQNRKLTDFYPVRRSSL,2.08
14,KKAQGKTQQNRKLTDFYPVRRSST,2.75
15,KKAQGKTQQNRKLTDFYPVRRSSA,2.12
16,KKAQGKTQQNRKLTDFYPVRRSSP,3.87
17,KKAQGKTQQNRKLTDFYPVRRSSM,3.16
18,KKAQGKTQQNRKLTDFYPVRRSSN,2.76

# Variants of: B2
# Experiment: as above
# Details: c terminus: a fixed tail appended
row,Variant,protein stability index
1,YQILLRVCCCELGVNPDQVEKIRK,1.57
2,YQELLRVCCCELGVNPDQVQKIRK,1.75
3,YQELLRVCCCELGVNPDQVKKIRK,1.96
4,YQELLRVCCCELGVNPDQMEKIRK,2.37
5,YQELLRVCCCELGVNPDQDEKIRK,1.66
6,YQELLRVCCCEMGVNPDQVEKIRK,2.05
7,YQELLRVCCCELGVNPGQVEKIRK,2.42
8,YQELLRVCCCELGVNPWQVEKIRK,2.12
9,YQELLRVCCCELGVNPVQVEKIRK,2.73
10,YQELLRVCCCELGVNPNQVEKIRK,2.11
11,YQELLRVCCCALGVNPDQVEKIRK,1.32
12,YQELLRVCCCSLGVNPDQVEKIRK,1.22
13,YQELLRVCCCYLGVNPDQVEKIRK,1.27
14,YQELLWVCCCELGVNPDQVEKIRK,1.58
15,YQELLDVCCCELGVNPDQVEKIRK,2.56
16,YQELLEVCCCELGVNPDQVEKIRK,2.36
17,DQELLRVCCCELGVNPDQVEKIRK,3.49
18,SQELLRVCCCELGVNPDQVEKIRK,2.65
19,TQELLRVCCCELGVNPDQVEKIRK,2.53

row,Variant,protein stability index
1,VQELLRVCCCELGVNPDQVEKIRK,1.15
2,KQELLRVCCCELGVNPDQVEKIRK,1.96
3,YAELLRVCCCELGVNPDQVEKIRK,1.94
4,YDELLRVCCCELGVNPDQVEKIRK,2.47
5,YQELLRVCCCELGVNPDQVECIRK,1.82
6,YQELLRVCCCELGTNPDQVEKIRK,1.99
7,YQELLRVCCCELGCNPDQVEKIRK,2.08
8,YQELLRVCCCELGANPDQVEKIRK,1.99
9,YQELLRVCCCELGPNPDQVEKIRK,2.02
10,YQELLRVCCCELGVNSDQVEKIRK,2.06
11,YQELLRVCCCELGVNTDQVEKIRK,1.29
12,YQELLRVCCCELGVNADQVEKIRK,1.81
13,YQELLRVCCCELGVNPDQVEKHRK,2.69
14,YQELLRVCCCELGVNPDQVEKLRK,1.93
15,YQELLRVCCPELGVNPDQVEKIRK,2.31
16,YQELLRVCCQELGVNPDQVEKIRK,2.92
17,YQELLRVWCCELGVNPDQVEKIRK,2.02
18,YQELLRVNCCELGVNPDQVEKIRK,3.48
19,YQELLRVYCCELGVNPDQVEKIRK,2.09

row,Variant,protein stability index
1,YQELLRVGCCELGVNPDQVEKIRK,2.8
2,YQELLRVCCCELCVNPDQVEKIRK,1.63
3,YQELLRVCCCELAVNPDQVEKIRK,2.08
4,YQETLRVCCCELGVNPDQVEKIRK,2.53
5,YQEYLRVCCCELGVNPDQVEKIRK,2.38
6,YQELLRVCICELGVNPDQVEKIRK,1.06
7,YQELLRVCQCELGVNPDQVEKIRK,2.27
8,YQELLRPCCCELGVNPDQVEKIRK,2.5
9,YQELLRCCCCELGVNPDQVEKIRK,2.1
10,YQELLRYCCCELGVNPDQVEKIRK,1.79
11,YQELLRVCCCELGVNPDQVEKIRL,2.07
12,YQELLRVCCCELGVNPDQVEKIRR,1.6
13,YQELLRVCCCELGVNPDQVEKIRW,1.27
14,YQELLRVCCCELGVNPDQVEKIRF,3.37
15,YQELLRVCCCELGVLPDQVEKIRK,1.39
16,YQELLRVCCCELGVPPDQVEKIRK,2.8
17,YQELIRVCCCELGVNPDQVEKIRK,1.77
18,YQELLRVCCCELGVNPDQVEKIQK,1.4
19,YQELLRVCCCELGVNPDQVEKIIK,1.8

# — the supplement of paper PMC10567573
